Blank lines part the entries; values can stand above or below the molecule they belong to.
Key:
UHRF1 = target: T1, UHRF1 (Homo sapiens, UniProt Q96T88); experiment: microscale thermophoresis; format: binding; details: RED-NHS labelled protein, 1 µM; room temperature, 30 min
T1 sequence (Q96T88 1-793): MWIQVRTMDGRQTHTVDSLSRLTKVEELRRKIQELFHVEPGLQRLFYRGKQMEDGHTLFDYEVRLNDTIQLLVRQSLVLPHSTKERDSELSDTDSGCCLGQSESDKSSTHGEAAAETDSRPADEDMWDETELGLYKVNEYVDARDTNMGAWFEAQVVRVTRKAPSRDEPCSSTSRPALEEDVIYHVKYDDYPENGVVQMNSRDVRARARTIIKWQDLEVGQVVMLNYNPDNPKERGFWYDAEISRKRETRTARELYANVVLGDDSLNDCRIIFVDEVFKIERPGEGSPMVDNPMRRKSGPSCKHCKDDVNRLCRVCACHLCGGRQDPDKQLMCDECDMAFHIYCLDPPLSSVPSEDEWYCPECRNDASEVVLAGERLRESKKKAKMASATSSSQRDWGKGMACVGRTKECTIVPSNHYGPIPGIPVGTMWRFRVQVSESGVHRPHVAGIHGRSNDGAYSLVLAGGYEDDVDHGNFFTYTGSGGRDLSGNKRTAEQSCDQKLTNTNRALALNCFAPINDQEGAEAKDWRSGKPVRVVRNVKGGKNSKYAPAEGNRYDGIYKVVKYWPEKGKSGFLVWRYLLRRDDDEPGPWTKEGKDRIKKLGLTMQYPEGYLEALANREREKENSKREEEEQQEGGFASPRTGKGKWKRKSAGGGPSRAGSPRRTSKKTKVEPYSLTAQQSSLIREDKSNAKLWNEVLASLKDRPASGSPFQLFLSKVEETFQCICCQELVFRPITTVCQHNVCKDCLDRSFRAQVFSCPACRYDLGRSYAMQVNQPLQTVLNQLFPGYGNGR

WNT5A protein = target: T2, WNT5A protein (UniProt P41221 62-380); experiment: BLI; biotinylated SFRP5 immobilised on the biosensor (ForteBio Octet RED 96e); WNT5A in Assay Buffer at 0.156 to 5 uM; global fitting model; details: both partners purified
T2 construct: WNT5A protein
T2 sequence (looked up): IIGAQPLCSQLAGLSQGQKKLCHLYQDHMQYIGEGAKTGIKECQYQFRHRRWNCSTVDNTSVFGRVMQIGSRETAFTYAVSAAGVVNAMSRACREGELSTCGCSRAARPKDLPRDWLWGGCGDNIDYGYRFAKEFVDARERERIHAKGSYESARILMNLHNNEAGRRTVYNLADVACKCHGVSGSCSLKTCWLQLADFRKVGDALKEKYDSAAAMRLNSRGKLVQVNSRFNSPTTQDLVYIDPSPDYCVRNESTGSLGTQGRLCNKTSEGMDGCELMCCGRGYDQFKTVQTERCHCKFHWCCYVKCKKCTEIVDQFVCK

[1] = target: T3, biotinylated SFRP5 protein (secreted frizzled-related protein 5) (UniProt Q5T4F7 30-317, biotin (biotinylated; site not stated)); experiment: BLI
T3 chain: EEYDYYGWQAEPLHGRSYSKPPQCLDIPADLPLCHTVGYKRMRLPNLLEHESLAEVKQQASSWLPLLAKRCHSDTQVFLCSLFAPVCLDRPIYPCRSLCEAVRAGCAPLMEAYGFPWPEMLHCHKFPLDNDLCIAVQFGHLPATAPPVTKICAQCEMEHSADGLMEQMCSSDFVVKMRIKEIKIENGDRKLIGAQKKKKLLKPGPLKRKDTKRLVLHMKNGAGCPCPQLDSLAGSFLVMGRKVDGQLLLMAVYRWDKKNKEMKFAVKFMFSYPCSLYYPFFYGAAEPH

Kd (UHRF1): 10.2 µM
Molecule: Cc1nc(Nc2ncc(C(=O)Nc3cc(NC(=O)c4cccc(C(F)(F)F)c4)ccc3C)s2)cc(N2CCN(CCO)CC2)n1 [UM164]

Kd (WNT5A protein): 20.3 µM
B1: biotinylated SFRP5 protein (secreted frizzled-related protein 5) (natural protein, UniProt Q5T4F7 30-317, looked up)
chain: EEYDYYGWQAEPLHGRSYSKPPQCLDIPADLPLCHTVGYKRMRLPNLLEHESLAEVKQQASSWLPLLAKRCHSDTQVFLCSLFAPVCLDRPIYPCRSLCEAVRAGCAPLMEAYGFPWPEMLHCHKFPLDNDLCIAVQFGHLPATAPPVTKICAQCEMEHSADGLMEQMCSSDFVVKMRIKEIKIENGDRKLIGAQKKKKLLKPGPLKRKDTKRLVLHMKNGAGCPCPQLDSLAGSFLVMGRKVDGQLLLMAVYRWDKKNKEMKFAVKFMFSYPCSLYYPFFYGAAEPH
modifications: biotin (biotinylated; site not stated)
notes: secreted frizzled-related protein 5 (SFRP5)

Kd [1]: 0.0203 µM
B2: WNT5A protein (natural protein)
chain: IIGAQPLCSQLAGLSQGQKKLCHLYQDHMQYIGEGAKTGIKECQYQFRHRRWNCSTVDNTSVFGRVMQIGSRETAFTYAVSAAGVVNAMSRACREGELSTCGCSRAARPKDLPRDWLWGGCGDNIDYGYRFAKEFVDARERERIHAKGSYESARILMNLHNNEAGRRTVYNLADVACKCHGVSGSCSLKTCWLQLADFRKVGDALKEKYDSAAAMRLNSRGKLVQVNSRFNSPTTQDLVYIDPSPDYCVRNESTGSLGTQGRLCNKTSEGMDGCELMCCGRGYDQFKTVQTERCHCKFHWCCYVKCKKCTEIVDQFVCK

— article PMC12041315, “UHRF1-mediated epigenetic reprogramming regulates glycolysis to promote progression of B-cell acute lymphoblastic leukemia” (Cell Death & Disease, 2025)
